Experimental data from patent US20250387497A1, “MULTIVALENT MULTISPECIFIC CONJUGATES AND RELATED COMPOSITIONS AND METHODS OF USE” (Purdue Research Foundation, priority 2022, published 2025).

Assays:
[1] = test system: cells isolated from spontaneous dog tumors and immortalized; experiment: Binding and internalization of P1/P2 peptides, anti-HA immunofluorescence, canine bladder tumor cells; type: cell-based
Excerpt: (§1) Arrows and arrowheads point to examples of internalized peptide in endosomal and late compartments, respectively.
(§2) The tested conjugates targeted bladder cancer cells and were internalized. See Coon et al. (2012), supra, for description of methodologies. See, e.g., FIGS. 3D and 3E. Given interspecies receptor conservation, the conjugates targeted cells of human, mouse and canine origin (FIG. 3D), and were internalized in GFP-Rab5-positive endosomes (see, e.g., FIG. 3D, mid-panel set) in a time-dependent manner (FIG. 3E).

T24 cells = experiment: Binding and internalization of P1/P2 peptides, anti-HA immunofluorescence, T24 cells; type: cell-based; settings: human T24 cells
Excerpt: as §1, §2

MB49 cells = experiment: Binding and internalization of P1/P2 peptides, anti-HA immunofluorescence, MB49 cells; type: cell-based; settings: mouse MB49 cells (LE and WT)
Procedure: as §1
After five minutes, internalized peptide was localized to peripheral early endosomes (arrowheads) and after 45 minutes accumulated in late endosomes/lysosomes (arrows).
FIGS. 3F-3G show the amount of cell-associated peptide as a function of time as estimated by quantitative microscopy (FIG. 3F) and as a function of dose by quantitative Western blot (FIG. 3G) with anti-HA antibodies (upper panel) followed by band densitometry of triplicates (lower panel).
as §2

normal urothelium = experiment: P2 binding/uptake in cultured normal urothelium cells, anti-HA immunostaining; type: cell-based; settings: different P2 concentrations
Procedure: (§3) FIGS. 4A and 4B show images of immunostaining with an anti-HA antibody of normal (FIG. 4A) and MB49 wild type cancer (FIG. 4B) cells incubated with the highest concentration of P2 conjugates used.
(§4) Normal (labeled A) and MB49 wild type cancer (labeled B) cells isolated from bladder urothelium were disaggregated and cultured in vitro. Cultured cells were incubated with different concentrations of the P2 MV-MS conjugate and the presence of cell-bound peptide was investigated by immunostaining with an anti-HA antibody using the methodologies described in Example 1.

[2] = test system: MB49 wild type cancer cells; experiment: P2 binding in cultured MB49 wild type cancer cells, anti-HA immunostaining; type: cell-based, mouse; settings: MB49 wild type cancer cells versus normal urothelium cells
Procedure: as §3, §4

B1: YHWYGYTPQNVIGRAQGKAQGKLAKLAKKLAKLAKGQAKGQARGFCGDGFYACY MDVGKQAGRQAGVSPPLTLGQLLSGQRAGQKAG (peptide)
chain: YHWYGYTPQNVIGRAQGKAQGKLAKLAKKLAKLAKGQAKGQARGFCGDGFYACYMDVGKQAGRQAGVSPPLTLGQLLSGQRAGQKAG
modifications: HA tag; MV-MS conjugate; P1 conjugate sequence: E-I-H-F
[1]
  binding and internalization of peptide: bound and internalized
T24 cells
  binding and internalization of peptide: bound and internalized
MB49 cells
  binding and internalization of peptide: bound and internalized

B2: FCGDGFYACYMDVGRAQGKAQGYHWYGYTPQNVIGQAKGQARGVSPPLTLGQLLSG KQAGRQAGKLAKLAKKLAKLAKGQRAGQKAG (peptide)
chain: FCGDGFYACYMDVGRAQGKAQGYHWYGYTPQNVIGQAKGQARGVSPPLTLGQLLSGKQAGRQAGKLAKLAKKLAKLAKGQRAGQKAG
modifications: HA tag; MV-MS conjugate; P2 conjugate sequence: H-E-F-I
[1]
  binding and internalization of peptide: bound and internalized
Normal urothelium
  binding or uptake to normal urothelium: no detectable binding or uptake
T24 cells
  binding and internalization of peptide: bound and internalized
MB49 cells
  binding and internalization of peptide: bound and internalized
[2]
  selectivity for cancer cells: marked selectivity for cancer cells
